Measurements as given in US20150004637A1, “SYSTEMS AND METHODS FOR IMAGING AT HIGH SPATIAL AND/OR TEMPORAL PRECISION” (President and Fellows of Harvard College, priority 2011, published 2015).

Legend:
HEK 293 cells = test: Arch fluorescence as a function of membrane potential, whole-cell voltage clamp; format: cell-based; settings: for Approx ΔF/F per 100 mV: Table 2, described herein
Method: Fluorescence of Arch in HEK 293 cells supplemented with about 5 μM all-trans retinal (See Methods 4) was readily imaged in an inverted fluorescence microscope with red illumination (λ=640 nm, about 20 mW, and about I=540 W/cm^2), a high numerical aperture objective (NA), a Cy5 filter set, and an EMCCD camera (See Methods 5, FIG. 3A). […] Cells not expressing Arch were not fluorescent.
(4) HEK cell culture. HEK-293 cells were grown at 37° C., 5% CO2, in DMEM supplemented with 10% FBS and penicillin-streptomycin. Plasmids were transfected using Lipofectamine and PLUS reagent (Invitrogen) following the manufacturer's instructions, and assayed between 48-72 hours later. The day before recording, cells were re-plated onto glass-bottom dishes (MatTek) at a density of ˜5000 cells/cm^2.
The concentration of endogenous retinal in the HEK cells was not known, so the cells were supplemented with retinal by diluting stock retinal solutions (40 mM, DMSO) in growth medium to a final concentration of 5 micromolar, and then placing the cells back in the incubator for 1-3 hours. All imaging and electrophysiology were performed in Tyrode buffer (containing, in mM: 125 NaCl, 2 KCl, 3 CaCl2, 1 MgCl2, 10 HEPES, 30 glucose pH 7.3, and adjusted to 305-310 mOsm with sucrose). Only HEK cells having reversal potentials between −10 and −40 mV were included in the analysis.
(5) Microscopy. Simultaneous fluorescence and whole-cell patch clamp recordings were acquired on a home-built, inverted epifluorescence microscope, operated at room temperature. One goal was to collect fluorescence with high efficiency, while also achieving a large enough field of view to image an entire neuron and its processes. Typically, microscope objectives offer a tradeoff between magnification and light-gathering capacity (numerical aperture). Additionally, the ability to change magnification while maintaining a patch on a single cell was important in some cases. Typically the vibrations associated with switching objectives—particularly water or oil immersion objectives—are incompatible with simultaneous patch clamp. In addition, in some cases, the capability to split the field of view into two wavelength bands, and to change magnification without changing the registration of the two halves of the image was important.
(6) Electrophysiology. Filamented glass micropipettes (WPI) were pulled to a tip resistance of 3-10 megohm fire polished, and filled with internal solution (containing, in mM: 125 potassium gluconate, 8 NaCl, 0.6 MgCl2, 0.1 CaCl2, 1 EGTA, 10 HEPES, 4 Mg-ATP, 0.4 Na-GTP, pH 7.3; adjusted to 295 mOsm with sucrose). The micropipettes were positioned with a Burleigh PCS 5000 micromanipulator. Whole-cell, voltage clamp recordings were acquired using an AxoPatch 200B amplifier (Molecular Devices), filtered at 2 kHz with the internal Bessel filter, and digitized with a National Instruments PCIE-6323 acquisition board at 10 kHz. […]
(7) Ramp and step-response of Arch WT and D95N. To measure fluorescence as a function of membrane potential, a triangle wave was applied, with amplitude from −150 mV to +150 mV and period 12 s, with video recording at 100 ms per frame. A pixel weight matrix was calculated according to Eq. S2 (below) and applied to the movie images to generate a fluorescence number for each frame. These fluorescence values were divided by their minimum value (at V=−150 mV). […] Background subtraction from the raw fluorescence would have yielded considerably larger values of delta-F/F.

[1] = test system: cultured mouse hippocampal neurons; test: Optopatch: optical stimulation and recording in neurons; format: cell-based; settings: red light 230 W/cm^2, 640 nm
Source text: In another example, a genetic construct termed “Optopatch” was used to provide simultaneous optical stimulation and recording from neurons. One embodiment of the Optopatch construct consisted of a bicistronic vector for co-expression of channelrhopsin 64 (ChR64)-mOrange II and archaerhodopsin 3 (Arch)-eGFP. This construct is depicted in FIG. 18A. The abbreviations used in the figure may be interpreted as follows. ss: Signaling sequence designed to improve the trafficking of Arch to the plasma membrane; Arch: Archaerhodopsin 3; eGFP: Enhanced green fluorescent protein; ER2: Endoplasmic reticulum export motif, designed to improve the trafficking of Arch to the plasma membrane; P2A: porcine teschovirus-1 2A sequence, a ribosomal skip-site leading to expression of two proteins from a single mRNA transcript; ChR64: Channelrhodopsin 64, a blue light-activated ion channel; mOr2: mOrange 2 fluorescent protein. […]
Whole-field illumination with pulses of blue light (20 mW/cm^2, 10 ms, 488 nm, repeated at 10 Hz) led to flashes of red fluorescence (em: 660-760 nm), detected on a high speed EMCCD camera. […] The optically-recorded fluorescence waveform coincided closely with the electrically recorded waveform on a single-trial basis (as shown in FIG. 18C), with a noise in the optically recorded voltage of 1.1 mV at a 1 kHz acquisition rate.

B1: Archaerhodopsin 3 (protein)
chain: MDPIALQAGYDLLGDGRPETLWLGIGTLLMLIGTFYFLVRGWGVTDKDAREYYAVTILVPGIASAAYLSMFFGIGLTEVTVGGEMLDIYYARYADWLFTTPLLLLDLALLAKVDRVTIGTLVGVDALMIVTGLIGALSHTAIARYSWWLFSTICMIVVLYFLATSLRSAAKERGPEVASTFNTLTALVLVLWTAYPILWIIGTEGAGVVGLGIETLLFMVLDVTAKVGFGFILLRSRAILGDTEAPEPSAGADVSAAD
modifications: Halorubrum sodomense
notes: Microbial rhodopsin from Halorubrum sodomense, light-driven proton pump used as fluorescent voltage indicator; experiments used an Arch-eGFP fusion
Question: What does the source list for B1?
Answer: Approx ΔF/F per 100 mV (HEK 293 cells): 66%; photobleaching (HEK 293 cells; continuous 10-minute exposure, 640 nm, about 540 W/cm^2, HEK 293 cells): about 17%; outward photocurrent mediated by Arch ([1]; n=6 cells): 34±7 pA; hyperpolarization of cells by Arch photocurrent ([1]; n=8 cells): 6.1±1.1 mV

B2: Arch D95N: Archaerhodopsin 3 with aspartic acid 95 mutated to asparagine; non-pumping voltage indicator (protein, UniProt P96787 7-258, looked up, variant D95N)
Archaerhodopsin-3: QAGYDLLGDGRPETLWLGIGTLLMLIGTFYFLVRGWGVTDKDAREYYAVTILVPGIASAAYLSMFFGIGLTEVTVGGEMLDIYYARYANWLFTTPLLLLDLALLAKVDRVTIGTLVGVDALMIVTGLIGALSHTAIARYSWWLFSTICMIVVLYFLATSLRSAAKERGPEVASTFNTLTALVLVLWTAYPILWIIGTEGAGVVGLGIETLLFMVLDVTAKVGFGFILLRSRAILGDTEAPEPSAGADVSAAD
Question: Which results are given for B2?
Answer: greater sensitivity than wild-type (HEK 293 cells): 50%; Approx ΔF/F per 100 mV (HEK 293 cells): 100%; increase in fluorescence between −150 mV and +150 mV (HEK 293 cells; whole-cell voltage clamp, no background subtraction): about 3 fold
